Measured values reported in the supplement of paper PMC10567573.

B1: DCAF4 (parent)
chain: DSHILLCLMGLAETPGCATLLPAS
B2: WEE1 (parent)
chain: FLGSSFSPVRCGGPGDASPRGCGA

Variants of: B1
Assay: protein stability index of a GFP-peptide fusion (GPS, HEK-293T) (PSI 1-6); higher = more stable
Conditions: c terminus: a fixed tail appended
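Further: lentivirally expressed fusions sorted by FACS into six bins by GFP to DsRed ratio, PSI derived from sequencing read proportions per bin multiplied by bin number.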

Variant	protein stability index
DSHILLCLMGLAETPGCATLLPAI [S24I]	2.82
DSHILLCLMGLAETPGCATLLPAN [S24N]	2.69
DSHILLCLMGLAETPGCATLLPAP [S24P]	2.36
DSHILLCLMGLAETPGCATLLPAR [S24R]	2.1
DSHILLCLMGLAETPGCATLLPAT [S24T]	3.75
DSHILLCLMGLAETPGCATLLPAW [S24W]	2.76
DSHILLCLMGLAETPGCATLLPAY [S24Y]	2.91

Variants of: B2
Assay: as above
Conditions: c terminus: a fixed tail appended

Variant	protein stability index
ALGSSFSPVRCGGPGDASPRGCGA [F1A]	2.89
CLGSSFSPVRCGGPGDASPRGCGA [F1C]	2.82
DLGSSFSPVRCGGPGDASPRGCGA [F1D]	2.95
GLGSSFSPVRCGGPGDASPRGCGA [F1G]	3.25
HLGSSFSPVRCGGPGDASPRGCGA [F1H]	3.26
ILGSSFSPVRCGGPGDASPRGCGA [F1I]	2.72
KLGSSFSPVRCGGPGDASPRGCGA [F1K]	2.95
LLGSSFSPVRCGGPGDASPRGCGA [F1L]	2.56
MLGSSFSPVRCGGPGDASPRGCGA [F1M]	2.29
NLGSSFSPVRCGGPGDASPRGCGA [F1N]	2.48
PLGSSFSPVRCGGPGDASPRGCGA [F1P]	3.4
QLGSSFSPVRCGGPGDASPRGCGA [F1Q]	3.36
RLGSSFSPVRCGGPGDASPRGCGA [F1R]	2.46
SLGSSFSPVRCGGPGDASPRGCGA [F1S]	2.87
TLGSSFSPVRCGGPGDASPRGCGA [F1T]	2.82
VLGSSFSPVRCGGPGDASPRGCGA [F1V]	3.77
WLGSSFSPVRCGGPGDASPRGCGA [F1W]	2.16
YLGSSFSPVRCGGPGDASPRGCGA [F1Y]	1.87
FAGSSFSPVRCGGPGDASPRGCGA [L2A]	2.06
FCGSSFSPVRCGGPGDASPRGCGA [L2C]	1.95
FDGSSFSPVRCGGPGDASPRGCGA [L2D]	3.37
FEGSSFSPVRCGGPGDASPRGCGA [L2E]	3.41

Variant	protein stability index
FFGSSFSPVRCGGPGDASPRGCGA [L2F]	2.51
FGGSSFSPVRCGGPGDASPRGCGA [L2G]	1.93
FHGSSFSPVRCGGPGDASPRGCGA [L2H]	2.02
FKGSSFSPVRCGGPGDASPRGCGA [L2K]	3.1
FMGSSFSPVRCGGPGDASPRGCGA [L2M]	2.07
FNGSSFSPVRCGGPGDASPRGCGA [L2N]	2.45
FPGSSFSPVRCGGPGDASPRGCGA [L2P]	2.04
FQGSSFSPVRCGGPGDASPRGCGA [L2Q]	1.85
FRGSSFSPVRCGGPGDASPRGCGA [L2R]	3.13
FSGSSFSPVRCGGPGDASPRGCGA [L2S]	3.18
FTGSSFSPVRCGGPGDASPRGCGA [L2T]	1.6
FWGSSFSPVRCGGPGDASPRGCGA [L2W]	2.35
FYGSSFSPVRCGGPGDASPRGCGA [L2Y]	2.19
FLASSFSPVRCGGPGDASPRGCGA [G3A]	2.19
FLCSSFSPVRCGGPGDASPRGCGA [G3C]	1.91
FLDSSFSPVRCGGPGDASPRGCGA [G3D]	2.02
FLESSFSPVRCGGPGDASPRGCGA [G3E]	2.58
FLFSSFSPVRCGGPGDASPRGCGA [G3F]	2.67
FLHSSFSPVRCGGPGDASPRGCGA [G3H]	2.85
FLISSFSPVRCGGPGDASPRGCGA [G3I]	2.82
FLKSSFSPVRCGGPGDASPRGCGA [G3K]	2.16
FLLSSFSPVRCGGPGDASPRGCGA [G3L]	1.65

Variant	protein stability index
FLMSSFSPVRCGGPGDASPRGCGA [G3M]	1.68
FLNSSFSPVRCGGPGDASPRGCGA [G3N]	1.32
FLPSSFSPVRCGGPGDASPRGCGA [G3P]	2.12
FLQSSFSPVRCGGPGDASPRGCGA [G3Q]	2.33
FLRSSFSPVRCGGPGDASPRGCGA [G3R]	2.34
FLSSSFSPVRCGGPGDASPRGCGA [G3S]	1.92
FLTSSFSPVRCGGPGDASPRGCGA [G3T]	1.48
FLVSSFSPVRCGGPGDASPRGCGA [G3V]	2.51
FLWSSFSPVRCGGPGDASPRGCGA [G3W]	2.79
FLYSSFSPVRCGGPGDASPRGCGA [G3Y]	1.91
FLGASFSPVRCGGPGDASPRGCGA [S4A]	1.79
FLGCSFSPVRCGGPGDASPRGCGA [S4C]	2.19
FLGDSFSPVRCGGPGDASPRGCGA [S4D]	2.39
FLGESFSPVRCGGPGDASPRGCGA [S4E]	2.65
FLGFSFSPVRCGGPGDASPRGCGA [S4F]	1.93
FLGGSFSPVRCGGPGDASPRGCGA [S4G]	2.16
FLGHSFSPVRCGGPGDASPRGCGA [S4H]	1.24
FLGISFSPVRCGGPGDASPRGCGA [S4I]	2.49
FLGKSFSPVRCGGPGDASPRGCGA [S4K]	2.34
FLGLSFSPVRCGGPGDASPRGCGA [S4L]	1.48
FLGMSFSPVRCGGPGDASPRGCGA [S4M]	2.06
FLGNSFSPVRCGGPGDASPRGCGA [S4N]	2.07

Variant	protein stability index
FLGPSFSPVRCGGPGDASPRGCGA [S4P]	1.82
FLGQSFSPVRCGGPGDASPRGCGA [S4Q]	1.86
FLGRSFSPVRCGGPGDASPRGCGA [S4R]	1.69
FLGTSFSPVRCGGPGDASPRGCGA [S4T]	1.56
FLGVSFSPVRCGGPGDASPRGCGA [S4V]	1.46
FLGYSFSPVRCGGPGDASPRGCGA [S4Y]	1.75
FLGSAFSPVRCGGPGDASPRGCGA [S5A]	1.98
FLGSDFSPVRCGGPGDASPRGCGA [S5D]	2.37
FLGSEFSPVRCGGPGDASPRGCGA [S5E]	1.52
FLGSFFSPVRCGGPGDASPRGCGA [S5F]	4.63
FLGSGFSPVRCGGPGDASPRGCGA [S5G]	1.91
FLGSHFSPVRCGGPGDASPRGCGA [S5H]	1.73
FLGSIFSPVRCGGPGDASPRGCGA [S5I]	1.92
FLGSKFSPVRCGGPGDASPRGCGA [S5K]	1.8
FLGSLFSPVRCGGPGDASPRGCGA [S5L]	2.13
FLGSMFSPVRCGGPGDASPRGCGA [S5M]	2.27
FLGSNFSPVRCGGPGDASPRGCGA [S5N]	1.92
FLGSPFSPVRCGGPGDASPRGCGA [S5P]	2.17
FLGSQFSPVRCGGPGDASPRGCGA [S5Q]	1.58
FLGSRFSPVRCGGPGDASPRGCGA [S5R]	1.63
FLGSTFSPVRCGGPGDASPRGCGA [S5T]	1.59
